The test deals with T1, recombinant 6His-Sp17 protein (UniProt Q15506 1-151).
T1 sequence: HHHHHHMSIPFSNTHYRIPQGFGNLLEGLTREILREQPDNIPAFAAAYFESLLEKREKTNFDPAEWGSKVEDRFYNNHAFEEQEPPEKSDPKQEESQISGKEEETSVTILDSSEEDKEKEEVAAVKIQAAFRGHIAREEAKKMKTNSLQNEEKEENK
Put plainly: SPR (Biacore T200), 6His-Sp17 at 6.25-300 nM. From the text:
The lines correspond, from highest to lowest, to fitted cycles for 300 nanomolar, 100 nanomolar, 50 nanomolar, 25 nanomolar, 12.5 nanomolar, and 6.25 nanomolar concentrations of 6His-Sp17.
The nucleotide sequences encoding the VH and VL regions of Example 1 were cloned into a mouse IgG2a heavy chain gene and a mouse kappa light chain gene, respectively, and expressed in CHO—S cells to produce a mouse-human chimeric antibody, which was named chAB2. Successful generation of the antibody was confirmed by SDS-PAGE and western blotting using anti-mouse heavy and light chain antibodies and recombinant Sp17 protein (FIGS. 2 & 3). The chAB2 antibody was reactive to mouse surface Sp17 protein expressed on the mouse ovarian cancer cell line ID8 (FIG. 4).
(SPR reads the build-up and loss of mass on a sensor chip optically.)

Broadly, the Kd is the concentration at which binding is half-saturated. In general, koff refers to the first-order rate constant of dissociation. One may read the kon as the second-order rate constant of association.

B1: mouse-human chimeric anti-Sp17 IgG2a/kappa monoclonal antibody chAB2 (antibody, V domains shown)
VH: QVQLQQSGAEVKKPGSSVKVSCKASGGTFSSYAISWVRQAPGQGLEWMGRIIPILGIANYAQKFQGRVTITADKSTSTAYMELSSLRSEDTAVYYCARPSEEVVAAYGAFDIWGQGTTVTVSS
VL: EIVLTQSPLSLPVRPGEPASISCRASQSLLRSDGFNYLDWYLQKPGQSPQLLVYLGSNRASGVPDRFSGSGSGTDFTLKISRVEAEDVGVYYCMQAVQTPYIFGQGTKLEIK
notes: also called chimeric antibody; anti-Sp17 antibody chAB2
As to B1, the Kd is 2.07 nM, the koff amounted to 0.00013 s⁻¹ and the kon was found to be 62600 M⁻¹ s⁻¹.

Values taken from patent US20250011420A1 (MEDICOVESTOR, published 2025).
